B1: Vacuolar protein sorting-associated protein 33B (Homo sapiens), Q9H267 (parent)
chain: MAFPHRPDAPELPDFSMLKRLARDQLIYLLEQLPGKKDLFIEADLMSPLDRIANVSILKQHEVDKLYKVENKPALSSNEQLCFLVRPRIKNMRYIASLVNADKLAGRTRKYKVIFSPQKFYACEMVLEEEGIYGDVSCDEWAFSLLPLDVDLLSMELPEFFRDYFLEGDQRWINTVAQALHLLSTLYGPFPNCYGIGRCAKMAYELWRNLEEEEDGETKGRRPEIGHIFLLDRDVDFVTALCSQVVYEGLVDDTFRIKCGSVDFGPEVTSSDKSLKVLLNAEDKVFNEIRNEHFSNVFGFLSQKARNLQAQYDRRRGMDIKQMKNFVSQELKGLKQEHRLLSLHIGACESIMKKKTKQDFQELIKTEHALLEGFNIRESTSYIEEHIDRQVSPIESLRLMCLLSITENGLIPKDYRSLKTQYLQSYGPEHLLTFSNLRRAGLLTEQAPGDTLTAVESKVSKLVTDKAAGKITDAFSSLAKRSNFRAISKKLNLIPRVDGEYDLKVPRDMAYVFGGAYVPLSCRIIEQVLERRSWQGLDEVVRLLNCSDFAFTDMTKEDKASSESLRLILVVFLGGCTFSEISALRFLGREKGYRFIFLTTAVTNSARLMEAMSEVKA
partner: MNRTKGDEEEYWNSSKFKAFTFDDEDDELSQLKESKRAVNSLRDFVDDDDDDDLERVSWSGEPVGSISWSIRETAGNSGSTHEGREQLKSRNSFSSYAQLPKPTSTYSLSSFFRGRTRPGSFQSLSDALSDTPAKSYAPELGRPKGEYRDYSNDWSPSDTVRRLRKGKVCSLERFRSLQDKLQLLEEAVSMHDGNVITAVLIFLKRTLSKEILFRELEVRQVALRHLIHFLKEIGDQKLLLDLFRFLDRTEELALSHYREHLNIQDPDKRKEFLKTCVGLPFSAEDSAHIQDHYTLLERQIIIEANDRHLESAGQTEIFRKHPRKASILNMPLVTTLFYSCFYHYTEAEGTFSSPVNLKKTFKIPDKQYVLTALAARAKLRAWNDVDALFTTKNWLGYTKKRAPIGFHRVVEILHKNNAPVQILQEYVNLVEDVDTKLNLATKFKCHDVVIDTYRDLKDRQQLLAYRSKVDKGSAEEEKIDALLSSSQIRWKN

Variants of: B1
Conditions: with spe39_human VIPAS39, Q9H9C1

Variant | effect of a mutation on the interaction
D234H | decreasing interaction
D252E | decreasing interaction
S243F | decreasing interaction

Variants of: B1
Conditions: with spe39_human VIPAS39, Q9H9C1
Remark: another data set of the same source

Variant | effect of a mutation on the interaction
G249V | decreasing interaction
L30P | decreasing interaction

Variants of: B1
Conditions: with spe39_human VIPAS39, Q9H9C1
Remark: another data set of the same source

Variant | effect of a mutation on the interaction
V251A;D252A;D253A | disrupting interaction
V235A;D236A;F237A | disrupting interaction
D232A;R233A;D234A | disrupting interaction

Variants of: B1
Conditions: with spe39_human VIPAS39, Q9H9C1
Remark: another data set of the same source

Variant | effect of a mutation on the interaction
L30P | disrupting interaction
